The target in series [1] is T1, His6::RhaR (1-159*) (Aspergillus nidulans (cDNA from strain AR198)) (UniProt A0A0A1I536).
T1 sequence: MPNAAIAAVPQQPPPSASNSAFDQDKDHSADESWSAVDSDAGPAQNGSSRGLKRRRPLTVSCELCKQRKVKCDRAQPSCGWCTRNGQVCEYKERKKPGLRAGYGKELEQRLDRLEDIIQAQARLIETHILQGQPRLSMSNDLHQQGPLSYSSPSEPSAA
Kind of series: EMSA. Particulars: 25 mM HEPES pH 7.9, 50 mM KCl, 5 mM MgCl2, 1 mM DTT, 0.1 mM EDTA, 1 ug salmon sperm DNA, 20 ul, 4 C 30 min; 5-8% native PAGE in 0.5x TBE at 4 C, ethidium …. A general note: In EMSA bound probe runs differently from free probe, usually more slowly.

The next series deals with T2, His6::RhaR (1-159*) (Aspergillus nidulans (cDNA from strain …, UniProt A0A0A1I536)).
T2 sequence: T1 sequence
Kind of series: EMSA; 25 mM HEPES pH 7.9, 50 mM KCl, 5 mM MgCl2, 1 mM DTT, 0.1 mM EDTA, 1 ug salmon sperm DNA, 20 ul, 4 C 30 min; 5-8% native PAGE in 0.5x TBE at 4 C, ethidium bromide. Particulars: protein: recombinant; tags: N-terminal His6 (pQE-80L); chain copies: 2; blunt.

Where a chain is given by its changes, count along the chain named.

For “AGATCTTCTCTGGGGAAGATCGACCGACCTGGTCCTGCAGAGCTCCAAGGCTTCCTCTCAGAAAGCCGATTAGTAGAAGCGGAGTCAAAGCAGGGTCAAGACGGACAATTAGAAGCCATGAATGGCGGATCCCAGCCCATGATCGCATACTGTGATCCAAAATCGACATAACTAAGTCACTTCCCTTCGCTTGTATCTGCCCAGCCATCCAACAACTCTA (double strand) [rhaAp 219 bp mut1]”, the binding entry in series [1] was “binds more weakly”.

B1: 35-mer wild type (dsDNA)
DNA 1: AGATCTTCTCGGGGGAAGATCGACCGACCTGGTCC
DNA 2: GGACCAGGTCGGTCGATCTTCCCCCGAGAAGATCT
In the case of B1, the binding result with His6::RhaR (1-159*) is listed as “binds”.

B2: 35-mer mut1 mut2 (dsDNA)
DNA 1: B1 DNA 1 with G11T, C25A
DNA 2: B1 DNA 2 with G11T, C25A
For B2, in the series with His6::RhaR (1-159*), the binding result was “no binding”.

Source of the values: paper PMC4245848, “The Aspergillus nidulans Zn(II)2Cys6 transcription factor AN5673/RhaR mediates L-rhamnose utilization and the production of α-L-rhamnosidases”.
